Measured values: US20230272029A1, “CO-AGONISTS AT GLP-1 AND GIP RECEPTORS SUITABLE FOR ORAL DELIVERY” (Novo Nordisk A/S, priority 2020, published 2023)
Starred links: 1 amine or outer side, 2 acyl side, 3 side chain; linkers in the order of their positions; H or OH if unused. Non-standard residues stand in square brackets, D forms with d. Groups on a side chain read outwards from the residue. No end group written: not given here. *: point of attachment. C18 diacid = O=C(O)CCCCCCCCCCCCCCCCC(=O)*; γGlu = O=C(O)[C@H](CCC(=O)[*:2])N[*:1]; εLys = N[C@@H](CCCCN[*:1])C(=O)[*:2]; AEEA = NCCOCCOCC(=O)O; Aib = CC(C)(N)C(=O)O

T1: human GIP receptor (human, UniProt P48546 22-466)
T1 sequence (looked up): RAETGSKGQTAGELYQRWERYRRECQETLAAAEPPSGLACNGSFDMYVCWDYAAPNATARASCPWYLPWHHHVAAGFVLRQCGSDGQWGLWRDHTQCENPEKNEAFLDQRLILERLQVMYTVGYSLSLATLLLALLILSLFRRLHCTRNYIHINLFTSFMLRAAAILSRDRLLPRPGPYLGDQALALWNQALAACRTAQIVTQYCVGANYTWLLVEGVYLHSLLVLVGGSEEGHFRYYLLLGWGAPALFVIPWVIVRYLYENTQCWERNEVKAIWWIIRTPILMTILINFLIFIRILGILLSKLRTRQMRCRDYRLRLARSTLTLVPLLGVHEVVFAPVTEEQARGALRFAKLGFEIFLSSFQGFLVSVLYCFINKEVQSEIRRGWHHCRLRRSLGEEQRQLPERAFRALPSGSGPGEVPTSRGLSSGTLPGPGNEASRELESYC


Assays:
human GIP receptor = biological target: T1, human GIP receptor; experiment: cell-based or functional assay
human GLP-1 receptor = human GLP-1 receptor (human, UniProt P43220 24-463); experiment: cell-based or functional assay

Row | Binder | hGIPR, CRE Luc 0% HSA EC50 (pM) (human GIP receptor) | hGIPR, CRE Luc 1% HSA EC50 (pM) (human GIP receptor) | hGLP-1R, CRE Luc 0% HSA EC50 (pM) (human GLP-1 receptor) | hGLP-1R, CRE Luc 1% HSA EC50 (pM) (human GLP-1 receptor)
1 | Y[Aib]EGTFTSDYSILLEEQAAREFIEWLLAGGPSK([εLys-εLys-γGlu-C18 diacid])GAPPPS-OH (N-terminus assumed; SMILES CC[C@H](C)[C@H](NC(=O)[C@H](Cc1ccccc1)NC(=O)[C@H](CCC(=O)O)NC(=O)[C@H](CCCNC(=N)N)NC(=O)[C@H](C)NC(=O)[C@H](C)NC(=O)[C@H](CCC(N)=O)NC(=O)[C@H](CCC(=O)O)NC(=O)[C@H](CCC(=O)O)NC(=O)[C@H](CC(C)C)NC(=O)[C@H](CC(C)C)NC(=O)[C@@H](NC(=O)[C@H](CO)NC(=O)[C@H](Cc1ccc(O)cc1)NC(=O)[C@H](CC(=O)O)NC(=O)[C@H](CO)NC(=O)[C@@H](NC(=O)[C@H](Cc1ccccc1)NC(=O)[C@@H](NC(=O)CNC(=O)[C@H](CCC(=O)O)NC(=O)C(C)(C)NC(=O)[C@@H](N)Cc1ccc(O)cc1)[C@@H](C)O)[C@@H](C)O)[C@@H](C)CC)C(=O)N[C@@H](CCC(=O)O)C(=O)N[C@@H](Cc1c[nH]c2ccccc12)C(=O)N[C@@H](CC(C)C)C(=O)N[C@@H](CC(C)C)C(=O)N[C@@H](C)C(=O)NCC(=O)NCC(=O)N1CCC[C@H]1C(=O)N[C@@H](CO)C(=O)N[C@@H](CCCCNC(=O)[C@@H](N)CCCCNC(=O)[C@@H](N)CCCCNC(=O)CC[C@H](NC(=O)CCCCCCCCCCCCCCCCC(=O)O)C(=O)O)C(=O)NCC(=O)N[C@@H](C)C(=O)N1CCC[C@H]1C(=O)N1CCC[C@H]1C(=O)N1CCC[C@H]1C(=O)N[C@@H](CO)C(=O)O) [Compound No. 43] | 5.6 pM | 444 pM | 4 pM | 360 pM
2 | Y[Aib]EGTFTSDYSILLEEQAAREFINWLLAGGPSK([εLys-εLys-γGlu-C18 diacid])GAPPPS-OH (N-terminus assumed; SMILES CC[C@H](C)[C@H](NC(=O)[C@H](Cc1ccccc1)NC(=O)[C@H](CCC(=O)O)NC(=O)[C@H](CCCNC(=N)N)NC(=O)[C@H](C)NC(=O)[C@H](C)NC(=O)[C@H](CCC(N)=O)NC(=O)[C@H](CCC(=O)O)NC(=O)[C@H](CCC(=O)O)NC(=O)[C@H](CC(C)C)NC(=O)[C@H](CC(C)C)NC(=O)[C@@H](NC(=O)[C@H](CO)NC(=O)[C@H](Cc1ccc(O)cc1)NC(=O)[C@H](CC(=O)O)NC(=O)[C@H](CO)NC(=O)[C@@H](NC(=O)[C@H](Cc1ccccc1)NC(=O)[C@@H](NC(=O)CNC(=O)[C@H](CCC(=O)O)NC(=O)C(C)(C)NC(=O)[C@@H](N)Cc1ccc(O)cc1)[C@@H](C)O)[C@@H](C)O)[C@@H](C)CC)C(=O)N[C@@H](CC(N)=O)C(=O)N[C@@H](Cc1c[nH]c2ccccc12)C(=O)N[C@@H](CC(C)C)C(=O)N[C@@H](CC(C)C)C(=O)N[C@@H](C)C(=O)NCC(=O)NCC(=O)N1CCC[C@H]1C(=O)N[C@@H](CO)C(=O)N[C@@H](CCCCNC(=O)[C@@H](N)CCCCNC(=O)[C@@H](N)CCCCNC(=O)CC[C@H](NC(=O)CCCCCCCCCCCCCCCCC(=O)O)C(=O)O)C(=O)NCC(=O)N[C@@H](C)C(=O)N1CCC[C@H]1C(=O)N1CCC[C@H]1C(=O)N1CCC[C@H]1C(=O)N[C@@H](CO)C(=O)O) [Compound No. 44] | 5.7 pM | 365 pM | 4.2 pM | 241 pM
3 | Y[Aib]EGTVTSDYSILLEK([εLys-εLys-γGlu-C18 diacid])QAAREFINWLLAGGPSSGAPPPS-OH (N-terminus assumed; SMILES CC[C@H](C)[C@H](NC(=O)[C@H](Cc1ccccc1)NC(=O)[C@H](CCC(=O)O)NC(=O)[C@H](CCCNC(=N)N)NC(=O)[C@H](C)NC(=O)[C@H](C)NC(=O)[C@H](CCC(N)=O)NC(=O)[C@H](CCCCNC(=O)[C@@H](N)CCCCNC(=O)[C@@H](N)CCCCNC(=O)CC[C@H](NC(=O)CCCCCCCCCCCCCCCCC(=O)O)C(=O)O)NC(=O)[C@H](CCC(=O)O)NC(=O)[C@H](CC(C)C)NC(=O)[C@H](CC(C)C)NC(=O)[C@@H](NC(=O)[C@H](CO)NC(=O)[C@H](Cc1ccc(O)cc1)NC(=O)[C@H](CC(=O)O)NC(=O)[C@H](CO)NC(=O)[C@@H](NC(=O)[C@@H](NC(=O)[C@@H](NC(=O)CNC(=O)[C@H](CCC(=O)O)NC(=O)C(C)(C)NC(=O)[C@@H](N)Cc1ccc(O)cc1)[C@@H](C)O)C(C)C)[C@@H](C)O)[C@@H](C)CC)C(=O)N[C@@H](CC(N)=O)C(=O)N[C@@H](Cc1c[nH]c2ccccc12)C(=O)N[C@@H](CC(C)C)C(=O)N[C@@H](CC(C)C)C(=O)N[C@@H](C)C(=O)NCC(=O)NCC(=O)N1CCC[C@H]1C(=O)N[C@@H](CO)C(=O)N[C@@H](CO)C(=O)NCC(=O)N[C@@H](C)C(=O)N1CCC[C@H]1C(=O)N1CCC[C@H]1C(=O)N1CCC[C@H]1C(=O)N[C@@H](CO)C(=O)O) [Compound No. 33] | 2.9 pM | 103 pM | 14.8 pM | 361 pM
4 | Y[Aib]EGTFTSDYSIILEK([εLys-εLys-γGlu-C18 diacid])QAAREFINWLLAGGPSSGAPPPS-OH (N-terminus assumed; SMILES CC[C@H](C)[C@H](NC(=O)[C@H](Cc1ccccc1)NC(=O)[C@H](CCC(=O)O)NC(=O)[C@H](CCCNC(=N)N)NC(=O)[C@H](C)NC(=O)[C@H](C)NC(=O)[C@H](CCC(N)=O)NC(=O)[C@H](CCCCNC(=O)[C@@H](N)CCCCNC(=O)[C@@H](N)CCCCNC(=O)CC[C@H](NC(=O)CCCCCCCCCCCCCCCCC(=O)O)C(=O)O)NC(=O)[C@H](CCC(=O)O)NC(=O)[C@H](CC(C)C)NC(=O)[C@@H](NC(=O)[C@@H](NC(=O)[C@H](CO)NC(=O)[C@H](Cc1ccc(O)cc1)NC(=O)[C@H](CC(=O)O)NC(=O)[C@H](CO)NC(=O)[C@@H](NC(=O)[C@H](Cc1ccccc1)NC(=O)[C@@H](NC(=O)CNC(=O)[C@H](CCC(=O)O)NC(=O)C(C)(C)NC(=O)[C@@H](N)Cc1ccc(O)cc1)[C@@H](C)O)[C@@H](C)O)[C@@H](C)CC)[C@@H](C)CC)C(=O)N[C@@H](CC(N)=O)C(=O)N[C@@H](Cc1c[nH]c2ccccc12)C(=O)N[C@@H](CC(C)C)C(=O)N[C@@H](CC(C)C)C(=O)N[C@@H](C)C(=O)NCC(=O)NCC(=O)N1CCC[C@H]1C(=O)N[C@@H](CO)C(=O)N[C@@H](CO)C(=O)NCC(=O)N[C@@H](C)C(=O)N1CCC[C@H]1C(=O)N1CCC[C@H]1C(=O)N1CCC[C@H]1C(=O)N[C@@H](CO)C(=O)O) [Compound No. 34] | 8.3 pM | 213 pM | 6 pM | 186 pM
5 | Y[Aib]EGTFTSDYSYYLEK([εLys-εLys-γGlu-C18 diacid])QAAQAFVNWLLAGGPSSGAPPPS-NH2 (N-terminus assumed; SMILES CC(C)C[C@H](NC(=O)[C@H](CC(C)C)NC(=O)[C@H](Cc1c[nH]c2ccccc12)NC(=O)[C@H](CC(N)=O)NC(=O)[C@@H](NC(=O)[C@H](Cc1ccccc1)NC(=O)[C@H](C)NC(=O)[C@H](CCC(N)=O)NC(=O)[C@H](C)NC(=O)[C@H](C)NC(=O)[C@H](CCC(N)=O)NC(=O)[C@H](CCCCNC(=O)[C@@H](N)CCCCNC(=O)[C@@H](N)CCCCNC(=O)CC[C@H](NC(=O)CCCCCCCCCCCCCCCCC(=O)O)C(=O)O)NC(=O)[C@H](CCC(=O)O)NC(=O)[C@H](CC(C)C)NC(=O)[C@H](Cc1ccc(O)cc1)NC(=O)[C@H](Cc1ccc(O)cc1)NC(=O)[C@H](CO)NC(=O)[C@H](Cc1ccc(O)cc1)NC(=O)[C@H](CC(=O)O)NC(=O)[C@H](CO)NC(=O)[C@@H](NC(=O)[C@H](Cc1ccccc1)NC(=O)[C@@H](NC(=O)CNC(=O)[C@H](CCC(=O)O)NC(=O)C(C)(C)NC(=O)[C@@H](N)Cc1ccc(O)cc1)[C@@H](C)O)[C@@H](C)O)C(C)C)C(=O)N[C@@H](C)C(=O)NCC(=O)NCC(=O)N1CCC[C@H]1C(=O)N[C@@H](CO)C(=O)N[C@@H](CO)C(=O)NCC(=O)N[C@@H](C)C(=O)N1CCC[C@H]1C(=O)N1CCC[C@H]1C(=O)N1CCC[C@H]1C(=O)N[C@@H](CO)C(N)=O) [Compound No. 4] | 8.5 pM | 294 pM | 6.6 pM | 484 pM
6 | Y[Aib]EGTFTSDYSILLEK([AEEA-AEEA-γGlu-C18 diacid])QAAREFINWLLAGGPSSGAPPPS-OH [Compound No. 35] | 5.2 pM | 303 pM | 3 pM | 413 pM
